According to the supplement of paper PMC10724198:
± gives the standard deviation of the averaged measurements.

Test system: Saccharomyces cerevisiae
Experiment: protein stability index of tFT-peptide fusion (C-terminal peptide) (PSI (0-1 scale)); higher = more stable (slower turnover)
Details: genetic background: wild type; temperature: 30 C
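Also: PSI is a weighted mean of sequencing reads over stability bins, variants kept only with over 10 reads, mCherry proximal and sfGFP distal, peptide attached via GGGS linker.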

Sequence	protein stability index
AREVGGRAGRRE	0.661 ± 0.012
KNSNIDKMIRKE	0.6973 ± 0.0012
YTLPVHPAFVFP	0.683 ± 0.071
QNQTYQKQKSKE	0.71 ± 0.068
FLLPPASLSLPP	0.7074 ± 0.0034
KKGIKEYYKVQK	0.775 ± 0.16
GGRGRGGEMGGR	0.722 ± 0.033
PVSVCADRPPAP	0.715 ± 0.063
LPFLPPPPPLRP	0.694 ± 0.11
HPLLPRPVPLTD	0.665 ± 0.059
FVIPLLRWGRTP	0.663 ± 0.053
SYQPQLDSKRVG	0.63 ± 0.019
HVLQFQTNIRQN	0.636 ± 0.1
CQDDGTAKRHKG	0.676 ± 0.061
GCPIYSIIQIHR	0.66818 ± 0.00019
WFLCCFGGVSLV	0.619 ± 0.0064
RVVCFPAPLMPR	0.705 ± 0.05
PPPPPARPSVPP	0.673 ± 0.077
PPTLVPPFPTKV	0.742 ± 0.064
SAGVTGREVFVG	0.631 ± 0.015
RCFQPLRQRMGR	0.734 ± 0.064
RRHLSLCLLPSL	0.685 ± 0.011
KQKIKKRIKKTI	0.6958 ± 0.0029
CGWGVMDAVGSR	0.685 ± 0.019
LPLASIYQLRSN	0.713 ± 0.039

Sequence	protein stability index
VCARAGRALEDS	0.674 ± 0.08
SVVGEKAALMGV	0.662 ± 0.014
PSPTRLPPPSPH	0.757 ± 0.008
ACLGVSTPSLGI	0.672 ± 0.027
KDGAGGDWDVGE	0.6948 ± 0.006
IRKNLIPLTIFT	0.538 ± 0.028
PYKASGLAGCAV	0.697 ± 0.008
IEESNKKIKNEI	0.713 ± 0.032
RIKNMNNNEEKR	0.714 ± 0.2
VLFHWAGFFLFL	0.525 ± 0.029
CRTFSALVDRFT	0.687 ± 0.046
SLRRLSPLPLAS	0.7 ± 0.04
LRGRRPFSQRAT	0.662 ± 0.034
PSSPTYVPPSFL	0.6754 ± 0.0022
DSAWSWTLLFVG	0.63 ± 0.026
PPPGSPLRPSRL	0.748 ± 0.12
PGGLSCPSPPTI	0.676 ± 0.057
PHPPHPPPPPPS	0.689 ± 0.036
GTVGRPNATGKV	0.742 ± 0.088
SSTDLLDLALLV	0.718 ± 0.094
LPTLFPSAPSAI	0.664 ± 0.05
SLFPSEPRPPSL	0.719 ± 0.03
RGRRFMRGEVGG	0.6528 ± 0.0055
PRGHPPIPPPLP	0.69 ± 0.035
PPPPHPPSPSLP	0.664 ± 0.1

Sequence	protein stability index
GSRRVSFFLRFG	0.647 ± 0.033
CFGFVRSLGWWG	0.6486 ± 0.0027
SSLPPPAPSFVP	0.646 ± 0.1
YRVFTANYEYEQ	0.724 ± 0.023
FVFPFHSRGVSQ	0.647 ± 0.015
CTGVFTGRCEGG	0.653 ± 0.028
KIKSKKEKPQVT	0.687 ± 0.023
MGGLFGWLVFWI	0.653 ± 0.27
GRKSSITLLHTL	0.58 ± 0.043
PALPPLPPPPPA	0.71 ± 0.016
LLSRLVVRGLVS	0.629 ± 0.087
PPAPAPPAPPPL	0.649 ± 0.027
SSGASRWSRSKF	0.762 ± 0.074
PHPRSVSPPPPS	0.624 ± 0.075
LLSHLSPCTRIG	0.606 ± 0.051
PPAPPHPPPLSP	0.695 ± 0.04
GGGVGRGGVEYG	0.609 ± 0.01
ICPWLLPPSCRS	0.738 ± 0.015
IRYEVVDLEPRG	0.693 ± 0.15
AGYEEWVRDARV	0.73 ± 0.0075
CSRFGRLCYNGE	0.618 ± 0.023
IQYGSSVRREGR	0.72 ± 0.22
LLRDRRQETILK	0.623 ± 0.092
